Assay results taken from patent publication US10227388B2, “Peptides and combination of peptides for use in immunotherapy against non-small cell lung cancer and other cancers” (immatics biotechnologies GmbH, priority 2015, dated 2019).

Target: HLA-A*02:01 (Homo sapiens, UniProt P04439, D140Y/D185E/D98H/E176V/E277Q/G131W/G231S/I119V/I121R/I166T/I218V/L300P/L318F/N151K/N90K/P208A/P217A/Q86G/Q94H/R138H/R169H/T345S)
Experiment: MHC binding assay (UV-ligand exchange, ELISA, peptide exchange yield)
Settings: binding of HLA-class I restricted peptides to HLA-A*02:01
Summary of the method: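 Peptide–HLA-A*02:01 complexes made by UV-ligand exchange of a UV-cleavable peptide for the test peptide. Exchange yield measured by ELISA: 100-fold diluted monomers captured on streptavidin, 1 h at 37° C., detected with HRP anti-β2m and TMB, absorbance at 450 nm.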

Substance	Peptide exchange (MHC class I binding score, peptide exchange yield)
273 (NLFQSVREV; listed as Homo sapiens) [compound 273]	″++″ (≥20% = ++)
274 (SLLFSLFEA; listed as Homo sapiens) [compound 274]	″++″ (≥20% = ++)
275 (YLVYILNEL; listed as Homo sapiens) [compound 275]	″++″ (≥20% = ++)
276 (ALFTFSPLTV; listed as Homo sapiens) [compound 276]	″+++″ (≥50% = +++)
277 (LLPPLESLATV; listed as Homo sapiens) [compound 277]	″++″ (≥20% = ++)
278 (QLLDVVLTI; listed as Homo sapiens) [compound 278]	″++″ (≥20% = ++)
279 (ALWGGTQPLL; listed as Homo sapiens) [compound 279]	″++″ (≥20% = ++)
280 (VLPDPEVLEAV; listed as Homo sapiens) [compound 280]	″+++″ (≥50% = +++)
281 (ILRESTEEL; listed as Homo sapiens) [compound 281]	″+++″ (≥50% = +++)
282 (LLADVVPTT; listed as Homo sapiens) [compound 282]	″+++″ (≥50% = +++)
284 (ILLSQTTGV; listed as Homo sapiens) [compound 284]	″+++″ (≥50% = +++)
285 (QLLHVGVTV; listed as Homo sapiens) [compound 285]	″+++″ (≥50% = +++)
286 (YLFPGIPEL; listed as Homo sapiens) [compound 286]	″+++″ (≥50% = +++)
287 (FLNEFFLNV; listed as Homo sapiens) [compound 287]	″+++″ (≥50% = +++)
288 (NLINEINGV; listed as Homo sapiens) [compound 288]	″+++″ (≥50% = +++)
289 (VLLEIEDLQV; listed as Homo sapiens) [compound 289]	″++++″ (≥75% = ++++)
295 (VLDRESPNV; listed as Homo sapiens) [compound 295]	″+++″ (≥50% = +++)
296 (FMEGAIIYV; listed as Homo sapiens) [compound 296]	″+++″ (≥50% = +++)
297 (VLADIELAQA; listed as Homo sapiens) [compound 297]	″+++″ (≥50% = +++)
298 (VMITKLVEV; listed as Homo sapiens) [compound 298]	″+++″ (≥50% = +++)
299 (YLLETSGNL; listed as Homo sapiens) [compound 299]	″+++″ (≥50% = +++)
300 (ALLGQTFSL; listed as Homo sapiens) [compound 300]	″+++″ (≥50% = +++)

Substance	Peptide exchange (MHC class I binding score, peptide exchange yield)
301 (FLVEDLVDSL; listed as Homo sapiens) [compound 301]	″+++″ (≥50% = +++)
302 (ALLQEGEVYSA; listed as Homo sapiens) [compound 302]	″+++″ (≥50% = +++)
303 (AILPQLFMV; listed as Homo sapiens) [compound 303]	″++++″ (≥75% = ++++)
304 (MTLGQIYYL; listed as Homo sapiens) [compound 304]	″+++″ (≥50% = +++)
305 (SIANFSEFYV; listed as Homo sapiens) [compound 305]	″++++″ (≥75% = ++++)
306 (ALVNVQIPL; listed as Homo sapiens) [compound 306]	″+++″ (≥50% = +++)
307 (ALPVSLPQI; listed as Homo sapiens) [compound 307]	″+++″ (≥50% = +++)
308 (SQYSGQLHEV; listed as Homo sapiens) [compound 308]	″+++″ (≥50% = +++)
309 (GLFDGVPTTA; listed as Homo sapiens) [compound 309]	″+++″ (≥50% = +++)
310 (FLVDTPLARA; listed as Homo sapiens) [compound 310]	″++++″ (≥75% = ++++)
311 (RLYTGMHTV; listed as Homo sapiens) [compound 311]	″+++″ (≥50% = +++)
312 (IISDLTIAL; listed as Homo sapiens) [compound 312]	″+++″ (≥50% = +++)
313 (VLFDDELLMV; listed as Homo sapiens) [compound 313]	″+++″ (≥50% = +++)
314 (ALIAEGIALV; listed as Homo sapiens) [compound 314]	″+++″ (≥50% = +++)
315 (YLQDVVEQA; listed as Homo sapiens) [compound 315]	″+++″ (≥50% = +++)
316 (ILLERLWYV; listed as Homo sapiens) [compound 316]	″+++″ (≥50% = +++)
317 (SLAALVVHV; listed as Homo sapiens) [compound 317]	″+++″ (≥50% = +++)
318 (GLINTGVLSV; listed as Homo sapiens) [compound 318]	″++″ (≥20% = ++)
320 (KMFEFVEPLL; listed as Homo sapiens) [compound 320]	″++++″ (≥75% = ++++)
321 (GLFEDVTQPGILL; listed as Homo sapiens) [compound 321]	″++++″ (≥75% = ++++)
322 (TLMTSLPAL; listed as Homo sapiens) [compound 322]	″+++″ (≥50% = +++)
324 (FLYDEIEAEV; listed as Homo sapiens) [compound 324]	″+++″ (≥50% = +++)

Substance	Peptide exchange (MHC class I binding score, peptide exchange yield)
325 (FIMPATVADATAV; listed as Homo sapiens) [compound 325]	″+++″ (≥50% = +++)
326 (FLPEALDFV; listed as Homo sapiens) [compound 326]	″+++″ (≥50% = +++)
327 (GLAPFTEGISFV; listed as Homo sapiens) [compound 327]	″+++″ (≥50% = +++)
328 (ALNDQVFEI; listed as Homo sapiens) [compound 328]	″+++″ (≥50% = +++)
329 (FLVTLNNVEV; listed as Homo sapiens) [compound 329]	″++++″ (≥75% = ++++)
330 (QLALKVEGV; listed as Homo sapiens) [compound 330]	″+++″ (≥50% = +++)
331 (KVDTVWVNV; listed as Homo sapiens) [compound 331]	″+++″ (≥50% = +++)
332 (YLISELEAA; listed as Homo sapiens) [compound 332]	″+++″ (≥50% = +++)
333 (FLPDANSSV; listed as Homo sapiens) [compound 333]	″++″ (≥20% = ++)
334 (TLTKVLVAL; listed as Homo sapiens) [compound 334]	″+++″ (≥50% = +++)
335 (YSLSSVVTV; listed as Homo sapiens) [compound 335]	″+++″ (≥50% = +++)
336 (ILLTAIVQV; listed as Homo sapiens) [compound 336]	″+++″ (≥50% = +++)
337 (HLLSELEAAPYL; listed as Homo sapiens) [compound 337]	″++++″ (≥75% = ++++)
339 (GLWEIENNPTVKA; listed as Homo sapiens) [compound 339]	″++++″ (≥75% = ++++)
340 (ALLSMTFPL; listed as Homo sapiens) [compound 340]	″++++″ (≥75% = ++++)
341 (SQIALNEKLVNL; listed as Homo sapiens) [compound 341]	″+++″ (≥50% = +++)
342 (HIYDKVMTV; listed as Homo sapiens) [compound 342]	″+++″ (≥50% = +++)
343 (SLLEVNEESTV; listed as Homo sapiens) [compound 343]	″+++″ (≥50% = +++)
344 (YLQDQHLLLTV; listed as Homo sapiens) [compound 344]	″+++″ (≥50% = +++)
345 (VIWKALIHL; listed as Homo sapiens) [compound 345]	″+++″ (≥50% = +++)
346 (LLDSKVPSV; listed as Homo sapiens) [compound 346]	″+++″ (≥50% = +++)
347 (SLFKHDPAAWEA; listed as Homo sapiens) [compound 347]	″++++″ (≥75% = ++++)
